Reference: paper PMC7496859

Columns and labels:
[1] = target: SmuA(V465E), sucrose isomerase from Serratia plymuthica, produced in the periplasm of E. coli (Serratia plymuthica); test: SEC; preparative SEC on Superdex 200 10/300 GL after Strep-Tactin affinity chromatography; running buffer 20 mM Tris/HCl pH 8.0, 150 mM NaCl; changes of pH, salt and buffering agent, addition of calcium or EDTA had no influence on the monomer/dimer ratio
[2] = as above
[3] = target: SmuA(V465E), sucrose isomerase from Serratia plymuthica, produced in the cytoplasm of E. coli (Serratia plymuthica); test: as above

For “SmuA(V465E), sucrose isomerase from Serratia plymuthica, produced in the periplasm of E. coli (enzyme)”, the stoichiometry N [1] was 2.
For “SmuA(V465E), sucrose isomerase from Serratia plymuthica, produced in the periplasm of E. coli”, the “ratio between monomer and dimer (SEC peaks)” value [2] was “the ratio between monomer and dimer to 10 : 1”.
In the case of “SmuA(V465E), sucrose isomerase from Serratia plymuthica, produced in the cytoplasm of E. coli (enzyme)”, the stoichiometry N [3] is reported as 2.
In the case of “SmuA(V465E), sucrose isomerase from Serratia plymuthica, produced in the cytoplasm of E. coli”, the “ratio of dimer to monomer (SEC peaks)” value [2] is reported as “a ratio of 3 : 1”.
